The labels stand for the following.
B1: Hairpin Ribozyme (parent)
chain: GUCCUCUUUCACGUGCGCGUGAAAGAGAGAAGUGAACCAGAGAAACACACGUUGUGGUAUAUUACCUGGUA

This series covers variants of B1. Briefly: self-cleavage, relative activity (ratio to wild type); higher = more cleavage; co-transcriptional.
GUCCUCUUUCACGUGCGCGUGAAAGAGAGAAGUGAACCAGAGAAACGCACGUUGUGGUAUAUUACCUGGUC: the self-cleavage is 0.599.
The same measure for GUCCUCUUUCACGUGCGCGUGAAAGAGAGAAGUGAACCAGAGAAACGCACGUUGUGGUAUAUUACCUGGUU: 0.221.
The same measure for GUCCUCUUUCACGUGCGCGUGAAAGAGAGAAGUGAACCAGAGAAACGCACGAUGUGGUAUAUUACCUGGUA: 0.0547.
Then GUCCUCUUUCACGUGCGCGUGAAAGAGAGAAGUGAACCAGAGAAACCCUCGUUGUGGUAUAUUACCUGGUA, with 0.171; and GUCCUCUUUCACGUGCGCGUGAAAGAGAGAAGUGAACCAGAGAAACGCACGUUGUGGUAUAUUACCUGGGA, with 0.115; and GUCCUCUUUCACGUGCGCGUGAAAGAGAGAAGUGAACCAGAGAAACGCACGUUGUGGUAUAUUACCUGGCA, with 0.1.
Turning to GUCCUCUUUCACGUGCGCGUGAAAGAGAGAAGUGAACCAGAGAAAUACACGUUGUGGGAUAUUACCUGGUA, the self-cleavage was found to be 0.0629.
As for GUCCUCUUUCACGUGCGCGUGAAAGAGAGAAGUGAACCAGAGAAACGCACGUUUUGGUAUAUUACCUGGUA, the self-cleavage was found to be 0.163.
The same measure for GUCCUCUUUCACGUGCGCGUGAAAGAGAGAAGUGAACCAGAGAAACCCACGUUGUGGUAUAUUAUCUGGUA: 0.219; for GUCCUCUUUCACGUGCGCGUGAAAGAGAGAAGUGAACCAGAGAAACCCACGUUGUGGUAUAUUACCUGGUG: 0.344; for GUCCUCUUUCACGUGCGCGUGAAAGAGAGAAGUGAACCAGAGAAACCCACGUUGUGGUAUAUUACCUGGUU: 0.147.
GUCCUCUUUCACGUGCGCGUGAAAGAGAGAAGUGAACCAGAGAAACCCACGUUGUGGAAUAUUACCUGGUA: the self-cleavage came out at 0.316.
For the variant GUCCUCUUUCACGUGCGCGUGAAAGAGAGAAGUGAACCAGAGAAACUCACGUUGUGGUAUCUUACCUGGUA, the self-cleavage came out at 0.243.
As to GUCCUCUUUCACGUGCGCGUGAAAGAGAGAAGUGAACCAGAGAAACUCACGUUGUGGUAUGUUACCUGGUA, the self-cleavage is 0.147.
Turning to GUCCUCUUUCACGUGCGCGUGAAAGAGAGAAGUGAACCAGAGAAAUACACGUUCUGGUAUAUUACCUGGUA, the self-cleavage came out at 0.149.
Then GUCCUCUUUCACGUGCGCGUGAAAGAGAGAAGUGAACCAGAGAAACCCACGUUGUGGUAUACUACCUGGUA, with 0.187.
The same measure for GUCCUCUUUCACGUGCGCGUGAAAGAGAGAAGUGAACCAGAGAAAUACACGUUGUGCUAUAUUACCUGGUA: 0.0631; for GUCCUCUUUCACGUGCGCGUGAAAGAGAGAAGUGAACCAGAGAAAUACACGUUGUGUUAUAUUACCUGGUA: 0.234; for GUCCUCUUUCACGUGCGCGUGAAAGAGAGAAGUGAACCAGAGAAAUACACGUUGUGAUAUAUUACCUGGUA: 0.186.
Then GUCCUCUUUCACGUGCGCGUGAAAGAGAGAAGUGAACCAGAGAAAUACACGUUGUGGUAGAUUACCUGGUA, with 0.223.
With GUCCUCUUUCACGUGCGCGUGAAAGAGAGAAGUGAACCAGAGAAAUACACGUUGUGGUAUAUUACCUCGUA, the self-cleavage was found to be 0.123.
The same measure for GUCCUCUUUCACGUGCGCGUGAAAGAGAGAAGUGAACCAGAGAAAUACACGUUGUGGUAUAUUAACUGGUA: 0.184; for GUCCUCUUUCACGUGCGCGUGAAAGAGAGAAGUGAACCAGAGAAAUACACGUUGUUGUAUAUUACCUGGUA: 0.0878.
As to GUCCUCUUUCACGUGCGCGUGAAAGAGAGAAGUGAACCAGAGAAACGCACGUUGUGGUAUAUUACCUGAUA, the self-cleavage was 0.0811.
As to GUCCUCUUUCACGUGCGCGUGAAAGAGAGAAGUGAACCAGAGAAACGCACGUUGUGGAAUAUUACCUGGUA, the self-cleavage amounted to 0.221.
The same measure for GUCCUCUUUCACGUGCGCGUGAAAGAGAGAAGUGAACCAGAGAAACCCACGUUGUGGUAUAUUGCCUGGUA: 0.265; for GUCCUCUUUCACGUGCGCGUGAAAGAGAGAAGUGAACCAGAGAAACCCACGUUGUGGUAUAUUCCCUGGUA: 0.233.
Regarding GUCCUCUUUCACGUGCGCGUGAAAGAGAGAAGUGAACCAGAGAAAUACACGUUGUGGUAUAUUACCAGGUA, the self-cleavage was 0.0755.
Turning to GUCCUCUUUCACGUGCGCGUGAAAGAGAGAAGUGAACCAGAGAAAUACACGUUGUGGUAUAUUACCCGGUA, the self-cleavage was found to be 0.11.
Then GUCCUCUUUCACGUGCGCGUGAAAGAGAGAAGUGAACCAGAGAAAUACACGUUGUGGUAUAUUACCUGGGA, with 0.189; and GUCCUCUUUCACGUGCGCGUGAAAGAGAGAAGUGAACCAGAGAAAUACACGUUGUGGUAUAUUACCUGGAA, with 0.255; and GUCCUCUUUCACGUGCGCGUGAAAGAGAGAAGUGAACCAGAGAAACGCACGUUGUUGUAUAUUACCUGGUA, with 0.169.
Then GUCCUCUUUCACGUGCGCGUGAAAGAGAGAAGUGAACCAGAGAAACCCACGUUGUGGUAUAUUACCUGCUA, with 0.196; and GUCCUCUUUCACGUGCGCGUGAAAGAGAGAAGUGAACCAGAGAAAUACACGUUGUGGUAUAAUACCUGGUA, with 0.148.
The same measure for GUCCUCUUUCACGUGCGCGUGAAAGAGAGAAGUGAACCAGAGAAACCCAUGUUGUGGUAUAUUACCUGGUA: 0.303.
As to GUCCUCUUUCACGUGCGCGUGAAAGAGAGAAGUGAACCAGAGAAACUCGCGUUGUGGUAUAUUACCUGGUA, the self-cleavage worked out at 0.161.
Then GUCCUCUUUCACGUGCGCGUGAAAGAGAGAAGUGAACCAGAGAAACGCAUGUUGUGGUAUAUUACCUGGUA, with 0.101; and GUCCUCUUUCACGUGCGCGUGAAAGAGAGAAGUGAACCAGAGAAACGCACGUUGUGGUAUAUUUCCUGGUA, with 0.167.
The same measure for GUCCUCUUUCACGUGCGCGUGAAAGAGAGAAGUGAACCAGAGAAACGCGCGUUGUGGUAUAUUACCUGGUA: 0.129; for GUCCUCUUUCACGUGCGCGUGAAAGAGAGAAGUGAACCAGAGAAACGCCCGUUGUGGUAUAUUACCUGGUA: 0.307.
The same measure for GUCCUCUUUCACGUGCGCGUGAAAGAGAGAAGUGAACCAGAGAAACGCACGUUGUGGUAUAUUAACUGGUA: 0.0744.
With GUCCUCUUUCACGUGCGCGUGAAAGAGAGAAGUGAACCAGAGAAACUCACGUUGUGGUAUAUUACCUGGUC, the self-cleavage was 0.304.
The same measure for GUCCUCUUUCACGUGCGCGUGAAAGAGAGAAGUGAACCAGAGAAACCCACGCUGUGGUAUAUUACCUGGUA: 0.376; for GUCCUCUUUCACGUGCGCGUGAAAGAGAGAAGUGAACCAGAGAAACCCACGGUGUGGUAUAUUACCUGGUA: 0.231; for GUCCUCUUUCACGUGCGCGUGAAAGAGAGAAGUGAACCAGAGAAAUACACGGUGUGGUAUAUUACCUGGUA: 0.197.
The same measure for GUCCUCUUUCACGUGCGCGUGAAAGAGAGAAGUGAACCAGAGAAACCCACGUUGUGGUAUAUUACGUGGUA: 0.17; for GUCCUCUUUCACGUGCGCGUGAAAGAGAGAAGUGAACCAGAGAAACCCACGUUGUGGUAUAUUACUUGGUA: 0.155; for GUCCUCUUUCACGUGCGCGUGAAAGAGAGAAGUGAACCAGAGAAACUCACGUUGUGGUUUAUUACCUGGUA: 0.194.
The same measure for GUCCUCUUUCACGUGCGCGUGAAAGAGAGAAGUGAACCAGAGAAAUACACGUUGUGGUAUAUUACCUGUUA: 0.172; for GUCCUCUUUCACGUGCGCGUGAAAGAGAGAAGUGAACCAGAGAAAUACACGUUGUGGUAUAUUACCUGAUA: 0.123.
As to GUCCUCUUUCACGUGCGCGUGAAAGAGAGAAGUGAACCAGAGAAACCCACGUUGUGGUAUCUUACCUGGUA, the self-cleavage was 0.152.
The same measure for GUCCUCUUUCACGUGCGCGUGAAAGAGAGAAGUGAACCAGAGAAACCCACGUUGUGGUUUAUUACCUGGUA: 0.112; for GUCCUCUUUCACGUGCGCGUGAAAGAGAGAAGUGAACCAGAGAAACCCACGUUGUGGUCUAUUACCUGGUA: 0.19; for GUCCUCUUUCACGUGCGCGUGAAAGAGAGAAGUGAACCAGAGAAACGCACGUUGUGUUAUAUUACCUGGUA: 0.179.
The same measure for GUCCUCUUUCACGUGCGCGUGAAAGAGAGAAGUGAACCAGAGAAACCCACGUUGUAGUAUAUUACCUGGUA: 0.233.
Then GUCCUCUUUCACGUGCGCGUGAAAGAGAGAAGUGAACCAGAGAAACGCACGUAGUGGUAUAUUACCUGGUA, with 0.176.
In the case of GUCCUCUUUCACGUGCGCGUGAAAGAGAGAAGUGAACCAGAGAAACGCACGUCGUGGUAUAUUACCUGGUA, the self-cleavage was found to be 0.
The same measure for GUCCUCUUUCACGUGCGCGUGAAAGAGAGAAGUGAACCAGAGAAACCCACGUUGUGGUAUAUUACCUCGUA: 0.195; for GUCCUCUUUCACGUGCGCGUGAAAGAGAGAAGUGAACCAGAGAAACCCACGUUGUGGUAUAUUACCUAGUA: 0.268; for GUCCUCUUUCACGUGCGCGUGAAAGAGAGAAGUGAACCAGAGAAACGCACGUUGUGGUAUAUUACCCGGUA: 0.129.
The same measure for GUCCUCUUUCACGUGCGCGUGAAAGAGAGAAGUGAACCAGAGAAACGCACGUUGUGGUAUAUUACCAGGUA: 0.136.
Then GUCCUCUUUCACGUGCGCGUGAAAGAGAGAAGUGAACCAGAGAAACGCACAUUGUGGUAUAUUACCUGGUA, with 0.15; and GUCCUCUUUCACGUGCGCGUGAAAGAGAGAAGUGAACCAGAGAAACCCACGUUGUGUUAUAUUACCUGGUA, with 0.275.
On to GUCCUCUUUCACGUGCGCGUGAAAGAGAGAAGUGAACCAGAGAAACCCACGUUGUGCUAUAUUACCUGGUA, for which the self-cleavage was determined as 0.0853.
The same measure for GUCCUCUUUCACGUGCGCGUGAAAGAGAGAAGUGAACCAGAGAAACGCACGUUGUGGUAUAUUACCUCGUA: 0.143; for GUCCUCUUUCACGUGCGCGUGAAAGAGAGAAGUGAACCAGAGAAACGCACGUUGUGGUAUAUUACCUUGUA: 0.104.
For the variant GUCCUCUUUCACGUGCGCGUGAAAGAGAGAAGUGAACCAGAGAAACGUACGUUGUGGUAUAUUACCUGGUA, the self-cleavage is 0.185.
The same measure for GUCCUCUUUCACGUGCGCGUGAAAGAGAGAAGUGAACCAGAGAAACUCACGUUGUGGUAUAUUACCUGGUA: 0.154.
Then GUCCUCUUUCACGUGCGCGUGAAAGAGAGAAGUGAACCAGAGAAACGCACGUUGUGGUAUAUUACCUGGUA, with 0.162.
The same measure for GUCCUCUUUCACGUGCGCGUGAAAGAGAGAAGUGAACCAGAGAAACCCACGUUGUGGUAUAUUACCUGGUA: 0.335; for GUCCUCUUUCACGUGCGCGUGAAAGAGAGAAGUGAACCAGAGAAACCCACGUUGGGGUAUAUUACCUGGUA: 0.136; for GUCCUCUUUCACGUGCGCGUGAAAGAGAGAAGUGAACCAGAGAAACCCACGUUGUGGUAGAUUACCUGGUA: 0.324.
Turning to GUCCUCUUUCACGUGCGCGUGAAAGAGAGAAGUGAACCAGAGAAACCCACGUUGUGGUAAAUUACCUGGUA, the self-cleavage is 0.219.
In the case of GUCCUCUUUCACGUGCGCGUGAAAGAGAGAAGUGAACCAGAGAAACGCACGUUGUGGUAUAUUACUUGGUA, the self-cleavage was 0.239.
Then GUCCUCUUUCACGUGCGCGUGAAAGAGAGAAGUGAACCAGAGAAACCCACGUUGUGGUAUAUUACCUGGCA, with 0.298; and GUCCUCUUUCACGUGCGCGUGAAAGAGAGAAGUGAACCAGAGAAACCCACGUUAUGGUAUAUUACCUGGUA, with 0.208.

(Values after the RNAGym collection of RNA variant scans (doi:10.7554/elife.80360).)
